± gives the standard deviation of the averaged measurements.

The data set is described as follows: total protein half-life in vivo (active degradation + dilution); higher = more stable protein.
[1] abbreviates: wild type E. coli NCM3722, growth: C-lim chemostat, doubling time 3 h.
Setting [2] is: wild type E. coli NCM3722, growth: C-lim chemostat, doubling time 6 h.
[3] abbreviates: wild type E. coli NCM3722, growth: C-lim chemostat, doubling time 12 h.
Setting [4] is: E. coli NCM3722 delta-clpP delta-lon delta-hslV, growth: N-lim chemostat, doubling time 6 h.
Setting [5] is: E. coli NCM3722 delta-clpP, growth: N-lim chemostat, doubling time 6 h.
[6] abbreviates: E. coli NCM3722 delta-hslV, growth: N-lim chemostat, doubling time 6 h.
Setting [7] is: E. coli NCM3722 delta-lon, growth: N-lim chemostat, doubling time 6 h.
Setting [8] is: E. coli NCM3722 delta-smpB, growth: N-lim chemostat, doubling time 6 h.
Where [9] appears, read: wild type E. coli NCM3722, growth: N-lim chemostat, doubling time 6 h.
[10] abbreviates: wild type E. coli NCM3722, growth: N-lim chemostat, doubling time 12 h.
Where [11] appears, read: wild type E. coli NCM3722, growth: P-lim chemostat, doubling time 6 h.
The mark [12] stands for this setting: wild type E. coli NCM3722, growth: P-lim chemostat, doubling time 12 h.

Regarding “MKNQAHPIIVVKRRKAKSHGAAHGSWKIAYADFMTAMMAFFLVMWLISISSPKELIQIAEYFRTPLATAVTGGDRISNSESPIPGGGDDYTQSQGEVNKQPNIEELKKRMEQSRLRKLRGDLDQLIESDPKLRALRPHLKIDLVQEGLRIQIIDSQNRPMFRTGSADVEPYMRDILRAIAPVLNGIPNRISLSGHTDDFPYASGEKGYSNWELSADRANASRRELMVGGLDSGKVLRVVGMAATMRLSDRGPDDAVNRRISLLVLNKQAEQAILHENAESQNEPVSALEKPEVAPQVSVPTMPSAEPR [P0AF06]”, the “total protein half-life in vivo” value is, setting by setting: under setting [1], 0.683 ± 0.017 h; under setting [2], 1.21 h; under setting [3], 1.33 h.

As to “MIFSVDKVRADFPVLSREVNGLPLAYLDSAASAQKPSQVIDAEAEFYRHGYAAVHRGIHTLSAQATEKMENVRKRASLFINARSAEELVFVRGTTEGINLVANSWGNSNVRAGDNIIISQMEHHANIVPWQMLCARVGAELRVIPLNPDGTLQLETLPTLFDEKTRLLAITHVSNVLGTENPLAEMITLAHQHGAKVLVDGAQAVMHHPVDVQALDCDFYVFSGHKLYGPTGIGILYVKEALLQEMPPWEGGGSMIATVSLSEGTTWTKAPWRFEAGTPNTGGIIGLGAALEYVSALGLNNIAEYEQNLMHYALSQLESVPDLTLYGPQNRLGVIAFNLGKHHAYDVGSFLDNYGIAVRTGHHCAMPLMAYYNVPAMCRASLAMYNTHEEVDRLVTGLQRIHRLLG”, the “total protein half-life in vivo” value under setting [4] is 3.84 ± 0.34 h; the “total protein half-life in vivo” value under setting [5] is 3.43 ± 0.26 h; the “total protein half-life in vivo” value under setting [6] was 3.39 ± 0.22 h; the “total protein half-life in vivo” value under setting [7] came out at 3.44 ± 0.05 h; the “total protein half-life in vivo” value under setting [8] was found to be 3.41 ± 0.12 h; the “total protein half-life in vivo” value under setting [1] was determined as 3.19 ± 0.48 h. Further, the “total protein half-life in vivo” value by setting is: under setting [3], 8.7 ± 0.18 h; under setting [9], 3.38 ± 0.26 h; under setting [10], 5.21 ± 0.034 h; under setting [11], 6.38 ± 0.54 h; under setting [12], 11.3 ± 1.4 h.

Consider “MMKMRWLSAAVMLTLYTSSSWAFSIDDVAKQAQSLAGKGYETPKSNLPSVFRDMKYADYQQIQFNHDKAYWNNLKTPFKLEFYHQGMYFDTPVKINEVTATAVKRIKYSPDYFTFGDVQHDKDTVKDLGFAGFKVLYPINSKDKNDEIVSMLGASYFRVIGAGQVYGLSARGLAIDTALPSGEEFPRFKEFWIERPKPTDKRLTIYALLDSPRATGAYKFVVMPGRDTVVDVQSKIYLRDKVGKLGVAPLTSMFLFGPNQPSPANNYRPELHDSNGLSIHAGNGEWIWRPLNNPKHLAVSSFSMENPQGFGLLQRGRDFSRFEDLDDRYDLRPSAWVTPKGEWGKGSVELVEIPTNDETNDNIVAYWTPDQLPEPGKEMNFKYTITFSRDEDKLHAPDNAWVQQTRRSTGDVKQSNLIRQPDGTIAFVVDFTGAEMKKLPEDTPVTAQTSIGDNGEIVESTVRYNPVTKGWRLVMRVKVKDAKKTTEMRAALVNADQTLSETWSYQLPANE”, for which the “total protein half-life in vivo” value by setting is: under setting [4], 6.373 ± 0.046 h; under setting [6], 6.94 ± 1 h; under setting [7], 6.34 ± 0.17 h; under setting [8], 5.91 ± 0.29 h; under setting [1], 3.25 ± 0.11 h; under setting [2], 6.12 ± 0.11 h. Further, the “total protein half-life in vivo” value turned out to be 12.4 ± 0.37 h under setting [3]; 6.43 ± 0.094 h under setting [9]; 12.6 ± 0.2 h under setting [10]; 6.37 ± 0.39 h under setting [11]; 12.9 ± 0.14 h under setting [12].

For the sequence “MNTLLLLAALSSQITFNTTQQGDVYTIIPEVTLTQSCLCRVQILSLREGSSGQSQTKQEKTLSLPANQPIALTKLSLNISPDDRVKIVVTVSDGQSLHLSQQWPPSSEKS”, the “total protein half-life in vivo” value is 4.26 ± 0.3 h under setting [4]; 3.33 h under setting [5]; 3.31 ± 0.35 h under setting [8]; 2.3 h under setting [1]; 5.97 ± 1.4 h under setting [3]; 4.1 h under setting [9]. The “total protein half-life in vivo” value is, setting by setting: under setting [10], 6.87 ± 0.16 h; under setting [11], 4.19 h; under setting [12], 7.71 ± 0.17 h.

Turning to “MTISELLQYCMAKPGAEQSVHNDWKATQIKVEDVLFAMVKEVENRPAVSLKTSPELAELLRQQHSDVRPSRHLNKAHWSTVYLDGSLPDSQIYYLVDASYQQAVNLLPEEKRKLLVQL [P0AF50]”, the “total protein half-life in vivo” value reads like this: under setting [4], 6.83 ± 0.78 h; under setting [5], 5.39 ± 0.71 h; under setting [6], 5.05 h; under setting [7], 5.47 ± 0.13 h; under setting [8], 4.39 h; under setting [1], more than 4 h. Further, the “total protein half-life in vivo” value under setting [2] turned out to be 4.6917 ± 0.0045 h; the “total protein half-life in vivo” value under setting [3] amounted to 7.14 ± 1.4 h; the “total protein half-life in vivo” value under setting [9] turned out to be 3.752 ± 0.03 h; the “total protein half-life in vivo” value under setting [10] was found to be 8.4 ± 3 h; the “total protein half-life in vivo” value under setting [11] was determined as 4.6 ± 1.2 h; the “total protein half-life in vivo” value under setting [12] worked out at 9.9 ± 0.1 h.

Turning to “MQILADLLNTIPAIDSTAMSRAQRHIDGLLKPVGSLGKLEVLAIQLAGMPGLNGIPHVGKKAVLVMCADHGVWEEGVAISPKEVTAIQAENMTRGTTGVCVLAEQAGANVHVIDVGIDTAEPIPGLINMRVARGSGNIASAPAMSRRQAEKLLLDVICYTQELAKNGVTLFGVGELGMANTTPAAAIVSTITGRDPEEVVGIGANLPTDKLANKIDVVRRAITLNQPNPQDGVDVLAKVGGFDLVGIAGVMLGAASCGLPVLLDGFLSYAAALAACQMSPAIKPYLIPSHLSAEKGARIALSHLGLEPYLNMEMRLGEGSGAALAMPIIEAACAIYNNMGELAASNIVLPGNTTSDLNS”, the “total protein half-life in vivo” value runs as follows: under setting [4], 4.974 ± 0.0055 h; under setting [5], 4.84 ± 1.1 h; under setting [6], 3.39 ± 0.091 h; under setting [8], 3.17 ± 0.12 h; under setting [1], 3 ± 0.2 h; under setting [2], 4.63 ± 0.68 h. Besides, the “total protein half-life in vivo” value is 8.1 ± 0.064 h under setting [3]; 3.27 ± 0.16 h under setting [9]; 5.18 ± 0.075 h under setting [10]; 4.994 ± 0.018 h under setting [11]; 9.91 ± 0.96 h under setting [12].

Turning to “MKLVGSYTSPFVRKLSILLLEKGITFEFINELPYNADNGVAQFNPLGKVPVLVTEEGECWFDSPIIAEYIELMNVAPAMLPRDPLESLRVRKIEALADGIMDAGLVSVREQARPAAQQSEDELLRQREKINRSLDVLEGYLVDGTLKTDTVNLATIAIACAVGYLNFRRVAPGWCVDRPHLVKLVENLFSRESFARTEPPKA [P0ACA1]”, the “total protein half-life in vivo” value under setting [4] was 5.35 ± 1.8 h; the “total protein half-life in vivo” value under setting [5] stood at 3.78 ± 0.28 h; the “total protein half-life in vivo” value under setting [6] was 4.118 ± 0.04 h; the “total protein half-life in vivo” value under setting [7] amounted to 4.31 ± 0.48 h; the “total protein half-life in vivo” value under setting [8] stood at 4.22 ± 0.18 h; the “total protein half-life in vivo” value under setting [1] worked out at 3.22 ± 0.13 h. In addition, the “total protein half-life in vivo” value by setting is: under setting [2], 5.52 ± 0.17 h; under setting [3], 10.7 ± 0.87 h; under setting [9], 4.16 ± 0.18 h; under setting [10], 6.719 ± 0.0095 h; under setting [11], 5.51 ± 0.23 h; under setting [12], 12 ± 1 h.
